pKd: −log10 of the molar value.
Target: IGF-II (insulin-like growth factor-II)
Experiment: SPR; BIAcore; who was immobilised, buffer, pH and temperature not stated (abstract P25)

| Substance | pKd | koff | kon |
| --- | --- | --- | --- |
| IGF2R domain 11 (domain or fragment) | 6.82 | 0.0138 s⁻¹ | 90000 M⁻¹ s⁻¹ |
| IGF2R domains 10-12 (domain or fragment) | 6.46 | 0.0086 s⁻¹ | 24800 M⁻¹ s⁻¹ |
| IGF2R domains 10-13 (domain or fragment) | 7.31 | 0.00808 s⁻¹ | 164000 M⁻¹ s⁻¹ |
| IGF2R domains 11-12 (domain or fragment) | 6.87 | 0.0082 s⁻¹ | 61300 M⁻¹ s⁻¹ |
| IGF2R domains 11-13 (domain or fragment) | 7.37 | 0.00426 s⁻¹ | 100000 M⁻¹ s⁻¹ |
| sIGF2R (domains 1-15), soluble insulin-like growth factor 2 receptor (from UniProt P11717 41-2304) | 8.02 | 0.0113 s⁻¹ | 1.18e+06 M⁻¹ s⁻¹ |
